{
  "source": "paper doi:10.1101/2020.12.17.423260",
  "binders": {"B1": {"name": "13mer poly-A RNA (ssRNA)", "RNA": "AAAAAAAAAAAAA"}},
  "molecular_target": "3Dpol-WT (RNA-dependent RNA polymerase) (Foot-and-mouth disease virus, UniProt P03305 1863-2332)",
  "sequence (P03305 1863-2332)": "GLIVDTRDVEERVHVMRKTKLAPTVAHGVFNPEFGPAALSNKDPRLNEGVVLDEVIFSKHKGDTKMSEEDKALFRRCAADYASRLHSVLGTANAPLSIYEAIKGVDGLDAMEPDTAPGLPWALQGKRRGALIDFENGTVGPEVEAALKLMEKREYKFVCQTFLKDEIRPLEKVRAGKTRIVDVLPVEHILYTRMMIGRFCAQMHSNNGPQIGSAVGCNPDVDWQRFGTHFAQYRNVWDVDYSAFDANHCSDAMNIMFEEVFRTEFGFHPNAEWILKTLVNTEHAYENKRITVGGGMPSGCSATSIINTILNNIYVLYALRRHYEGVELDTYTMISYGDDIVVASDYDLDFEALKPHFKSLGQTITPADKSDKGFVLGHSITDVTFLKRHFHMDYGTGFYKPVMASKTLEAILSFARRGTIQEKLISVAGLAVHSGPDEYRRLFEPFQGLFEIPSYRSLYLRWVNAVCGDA",
  "experiment": "fluorescence polarisation anisotropy",
  "data": [
    {"binder": "B1", "values": [
      {"measurement": "Kd", "result": "5.83 ± 1.3", "unit": "µM"}
    ]}
  ]
}
